PMC8526164
pKd: −log10 of the molar value.

Experiments:
[1] = test system: AtEndoV (Y100A) (Arabidopsis thaliana); assay: SPR; details: SPR (ProteOn XPR36, NLC chip): PBS, 0.005% Tween 20, pH 7.4, 1 mM EDTA, no divalent metal, 25 C, protein 31.25-500 nM
[2] = test system: AtEndoV (WT) (Arabidopsis thaliana); assay: SPR; details: SPR (ProteOn XPR36, NLC chip): PBS, 0.005% Tween 20, pH 7.4, 1 mM EDTA, no divalent metal, 25 C, protein 31.25-500 nM
[3] = N at position 11 = deoxyinosine

Row | Sequence | pKd [1, 3] | pKd [2, 3] | pKd ([1]; N at position 11 = inosine) | pKd ([2]; N at position 11 = inosine)
1 | CTGTATGATGNAGATGCTGAC [ssDNA(dI) 21-mer] | 3.80 | 3.66 |  | 
2 | CUGUAUGAUGNAGAUGCUGAC [ssRNA(I) 21-mer] |  |  | 6.92 | 8.70
